Results on one molecule are retold here after patent publication US20120270801A1 (Affibody, published 2012).

For this assay, the target named is T1, recombinant human HER3/Fc chimera (R&D Systems, #348-RB-050) (human, UniProt P21860 20-643).
T1 construct: Bought reagent; Biotinylated for flow cytometry, unlabelled for dot blot, ELISA and SPR; also called biotinylated HER3-Fc; not shown: human IgG Fc-region
Briefly: SPR, 2.5 nM HER3-Fc alone injected over immobilised heregulin.

B1: heregulin (HRG1-β1, EGF-like domain, R&D Systems) (ligand, human, UniProt Q02297-6 177-241, looked up)
chain: SHLVKCAEKEKTFCVNGGECFMVKDLSNPSRYLCKCPNEFTGDRCQNYVMASFYKHLGIEFMEAE
notes: domain: EGF-like domain; also called human heregulin; HRG1-β, 396-HB
For B1, the binding result is given as “binds”.
